Assay results published in the supplement of paper PMC10065799, “High-throughput profiling of sequence recognition by tyrosine kinases and SH2 domains using bacterial peptide display” (eLife, 2023).

What was measured:
[1] = system: AncSZ; experiment: phosphorylation enrichment, bacterial display (enrichment ratio); higher = better substrate or ligand; peptides without Tyr show the background
[2] = target: EPHB1 (UniProt P54762); experiment: as above
[3] = target: EPHB2 (UniProt P29323); experiment: as above
[4] = target: FGFR1 (UniProt P11362); experiment: as above
[5] = target: FGFR3 (UniProt P22607); experiment: as above
[6] = system: Fer (mouse); experiment: as above
[7] = target: Fes (UniProt P07332); experiment: as above
[8] = target: Fyn (UniProt P06241); experiment: as above
[9] = target: Hck (UniProt P08631); experiment: as above
[10] = target: Jak2 (UniProt O60674); experiment: as above
[11] = target: MERTK (UniProt Q12866); experiment: as above
[12] = system: c-Abl (mouse); experiment: as above
[13] = system: c-Src; experiment: as above
[14] = target: Grb2 SH2 (UniProt P62993); experiment: SH2 binding enrichment of the phosphorylated peptide, bacterial display (enrichment ratio); higher = better substrate or ligand; peptides without Tyr show the background
[15] = target: SHP2-C SH2; experiment: as above
[16] = target: c-Src SH2; experiment: as above
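Wherever SH2 binding enrichment of the phosphorylated peptide, bacterial display is given: peptide library displayed on the E. coli surface as eCPX fusions, selected cells deep-sequenced, score is each peptide's frequency after selection divided by its frequency in the input.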
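Wherever phosphorylation enrichment, bacterial display is given: 11-residue human phosphosite peptides and single-mutation variants displayed on the E. coli surface, counted by deep sequencing, each peptide's frequency after selection divided by its frequency in the unselected input library; frequency after pTyr selection over input frequency; kinase dosed for 20-30% of maximal phosphorylation in three min.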

FGFR1, sequence (P11362 whole entry, looked up): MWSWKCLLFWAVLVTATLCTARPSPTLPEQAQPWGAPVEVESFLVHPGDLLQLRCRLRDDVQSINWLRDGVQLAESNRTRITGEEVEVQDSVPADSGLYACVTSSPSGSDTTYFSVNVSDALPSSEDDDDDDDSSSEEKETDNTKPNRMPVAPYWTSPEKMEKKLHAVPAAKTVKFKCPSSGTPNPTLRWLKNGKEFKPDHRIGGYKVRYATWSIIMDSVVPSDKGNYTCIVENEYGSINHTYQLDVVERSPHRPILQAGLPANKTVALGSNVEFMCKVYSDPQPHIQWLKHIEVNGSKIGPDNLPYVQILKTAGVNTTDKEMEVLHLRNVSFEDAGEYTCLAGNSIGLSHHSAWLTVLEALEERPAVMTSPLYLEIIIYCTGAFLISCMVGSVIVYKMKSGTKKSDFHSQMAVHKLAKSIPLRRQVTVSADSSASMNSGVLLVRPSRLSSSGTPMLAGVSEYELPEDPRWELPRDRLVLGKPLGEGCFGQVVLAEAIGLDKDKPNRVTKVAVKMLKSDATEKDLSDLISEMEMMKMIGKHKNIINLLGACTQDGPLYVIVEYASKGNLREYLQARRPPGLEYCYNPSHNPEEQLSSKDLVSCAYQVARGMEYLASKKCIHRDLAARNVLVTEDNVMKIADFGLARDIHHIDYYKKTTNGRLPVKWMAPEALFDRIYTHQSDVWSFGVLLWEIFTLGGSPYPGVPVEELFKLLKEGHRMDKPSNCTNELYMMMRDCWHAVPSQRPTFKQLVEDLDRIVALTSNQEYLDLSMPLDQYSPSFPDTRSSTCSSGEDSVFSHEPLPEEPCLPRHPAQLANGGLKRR
Hck, sequence (P08631 whole entry, looked up): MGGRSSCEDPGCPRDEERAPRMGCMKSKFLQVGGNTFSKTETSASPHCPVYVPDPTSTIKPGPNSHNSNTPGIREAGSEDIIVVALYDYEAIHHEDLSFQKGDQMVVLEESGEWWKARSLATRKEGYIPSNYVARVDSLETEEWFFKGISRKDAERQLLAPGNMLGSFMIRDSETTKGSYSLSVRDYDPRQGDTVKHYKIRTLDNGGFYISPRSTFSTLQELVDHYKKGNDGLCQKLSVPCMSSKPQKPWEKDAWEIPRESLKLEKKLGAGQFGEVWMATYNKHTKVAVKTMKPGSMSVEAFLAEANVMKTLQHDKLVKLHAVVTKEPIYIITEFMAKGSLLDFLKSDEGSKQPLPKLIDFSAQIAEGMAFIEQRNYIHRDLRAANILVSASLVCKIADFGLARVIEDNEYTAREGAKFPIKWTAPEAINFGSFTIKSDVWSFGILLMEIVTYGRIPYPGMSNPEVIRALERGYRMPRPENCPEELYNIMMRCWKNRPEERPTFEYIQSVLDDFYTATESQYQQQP
EPHB2, sequence (P29323 whole entry, looked up): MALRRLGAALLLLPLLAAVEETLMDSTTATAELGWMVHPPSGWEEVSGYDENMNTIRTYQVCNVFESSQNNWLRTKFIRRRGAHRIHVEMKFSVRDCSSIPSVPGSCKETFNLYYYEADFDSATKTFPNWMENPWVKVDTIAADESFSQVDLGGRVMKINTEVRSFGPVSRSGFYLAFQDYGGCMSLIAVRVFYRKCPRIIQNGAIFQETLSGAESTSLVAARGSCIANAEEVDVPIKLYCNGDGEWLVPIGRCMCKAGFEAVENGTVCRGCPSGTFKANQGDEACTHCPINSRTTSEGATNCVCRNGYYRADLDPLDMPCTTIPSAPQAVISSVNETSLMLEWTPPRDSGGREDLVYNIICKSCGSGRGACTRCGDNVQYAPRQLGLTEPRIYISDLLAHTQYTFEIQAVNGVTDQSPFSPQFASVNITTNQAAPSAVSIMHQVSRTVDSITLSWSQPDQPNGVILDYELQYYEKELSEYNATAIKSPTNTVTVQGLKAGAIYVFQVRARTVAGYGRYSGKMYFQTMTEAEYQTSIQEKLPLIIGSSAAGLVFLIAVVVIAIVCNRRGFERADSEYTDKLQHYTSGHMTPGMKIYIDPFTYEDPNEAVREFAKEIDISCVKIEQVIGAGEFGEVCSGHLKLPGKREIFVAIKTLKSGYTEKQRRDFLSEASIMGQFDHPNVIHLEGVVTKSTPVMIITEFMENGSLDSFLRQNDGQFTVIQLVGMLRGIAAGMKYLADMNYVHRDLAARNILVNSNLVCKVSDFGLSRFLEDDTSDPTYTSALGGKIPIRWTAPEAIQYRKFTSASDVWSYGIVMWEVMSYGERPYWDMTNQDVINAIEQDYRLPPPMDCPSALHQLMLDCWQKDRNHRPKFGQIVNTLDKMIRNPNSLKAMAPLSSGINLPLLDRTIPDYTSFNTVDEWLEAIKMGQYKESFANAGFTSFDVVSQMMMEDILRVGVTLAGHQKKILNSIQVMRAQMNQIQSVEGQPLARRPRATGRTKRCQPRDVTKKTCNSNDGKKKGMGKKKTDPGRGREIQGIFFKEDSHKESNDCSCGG
Fyn, sequence (P06241 whole entry, looked up): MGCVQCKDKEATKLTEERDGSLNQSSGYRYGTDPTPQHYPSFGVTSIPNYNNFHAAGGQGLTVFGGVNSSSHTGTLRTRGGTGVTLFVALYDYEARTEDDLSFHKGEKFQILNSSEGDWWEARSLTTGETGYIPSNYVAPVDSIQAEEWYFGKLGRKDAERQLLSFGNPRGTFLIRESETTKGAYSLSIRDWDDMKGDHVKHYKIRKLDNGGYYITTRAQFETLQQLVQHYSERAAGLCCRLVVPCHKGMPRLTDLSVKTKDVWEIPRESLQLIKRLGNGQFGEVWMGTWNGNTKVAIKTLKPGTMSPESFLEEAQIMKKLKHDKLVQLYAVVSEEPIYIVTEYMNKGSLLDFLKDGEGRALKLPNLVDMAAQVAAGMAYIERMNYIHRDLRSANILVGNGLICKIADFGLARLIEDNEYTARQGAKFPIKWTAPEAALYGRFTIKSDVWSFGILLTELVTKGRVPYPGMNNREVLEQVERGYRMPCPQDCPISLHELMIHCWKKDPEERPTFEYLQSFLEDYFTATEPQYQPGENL
Grb2 SH2, sequence (P62993 whole entry, looked up): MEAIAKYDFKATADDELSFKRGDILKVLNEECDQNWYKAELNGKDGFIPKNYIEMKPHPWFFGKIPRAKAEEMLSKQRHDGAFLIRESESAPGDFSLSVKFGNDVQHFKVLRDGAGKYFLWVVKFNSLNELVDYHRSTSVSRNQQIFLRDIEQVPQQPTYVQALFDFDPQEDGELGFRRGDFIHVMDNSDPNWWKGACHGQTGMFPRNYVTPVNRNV
EPHB1, sequence (P54762 whole entry, looked up): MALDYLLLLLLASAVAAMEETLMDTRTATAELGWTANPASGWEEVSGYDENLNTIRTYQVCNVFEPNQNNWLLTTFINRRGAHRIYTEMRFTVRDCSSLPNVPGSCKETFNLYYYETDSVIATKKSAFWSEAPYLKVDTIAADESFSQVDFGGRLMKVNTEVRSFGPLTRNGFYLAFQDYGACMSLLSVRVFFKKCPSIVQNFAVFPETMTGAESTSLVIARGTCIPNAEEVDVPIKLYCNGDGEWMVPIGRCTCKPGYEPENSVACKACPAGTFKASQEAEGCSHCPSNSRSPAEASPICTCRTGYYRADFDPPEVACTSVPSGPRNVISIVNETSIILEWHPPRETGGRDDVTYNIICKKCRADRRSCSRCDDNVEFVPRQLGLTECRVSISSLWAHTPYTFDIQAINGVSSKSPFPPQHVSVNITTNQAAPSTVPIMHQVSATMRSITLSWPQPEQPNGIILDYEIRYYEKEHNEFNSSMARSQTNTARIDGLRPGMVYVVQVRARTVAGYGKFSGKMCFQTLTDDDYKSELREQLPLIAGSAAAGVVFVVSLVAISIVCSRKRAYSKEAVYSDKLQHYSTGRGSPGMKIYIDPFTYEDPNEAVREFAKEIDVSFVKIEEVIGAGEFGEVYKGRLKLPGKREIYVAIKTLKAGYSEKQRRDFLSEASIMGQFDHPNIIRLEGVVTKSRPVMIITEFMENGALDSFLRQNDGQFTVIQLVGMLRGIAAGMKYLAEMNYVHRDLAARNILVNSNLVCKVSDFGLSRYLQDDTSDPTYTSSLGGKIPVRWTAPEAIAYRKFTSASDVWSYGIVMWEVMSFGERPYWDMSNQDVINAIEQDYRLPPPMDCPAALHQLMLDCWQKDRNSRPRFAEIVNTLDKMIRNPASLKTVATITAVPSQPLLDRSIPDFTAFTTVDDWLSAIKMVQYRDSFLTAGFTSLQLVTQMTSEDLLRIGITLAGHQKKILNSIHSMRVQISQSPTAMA
Fes, sequence (P07332 whole entry, looked up): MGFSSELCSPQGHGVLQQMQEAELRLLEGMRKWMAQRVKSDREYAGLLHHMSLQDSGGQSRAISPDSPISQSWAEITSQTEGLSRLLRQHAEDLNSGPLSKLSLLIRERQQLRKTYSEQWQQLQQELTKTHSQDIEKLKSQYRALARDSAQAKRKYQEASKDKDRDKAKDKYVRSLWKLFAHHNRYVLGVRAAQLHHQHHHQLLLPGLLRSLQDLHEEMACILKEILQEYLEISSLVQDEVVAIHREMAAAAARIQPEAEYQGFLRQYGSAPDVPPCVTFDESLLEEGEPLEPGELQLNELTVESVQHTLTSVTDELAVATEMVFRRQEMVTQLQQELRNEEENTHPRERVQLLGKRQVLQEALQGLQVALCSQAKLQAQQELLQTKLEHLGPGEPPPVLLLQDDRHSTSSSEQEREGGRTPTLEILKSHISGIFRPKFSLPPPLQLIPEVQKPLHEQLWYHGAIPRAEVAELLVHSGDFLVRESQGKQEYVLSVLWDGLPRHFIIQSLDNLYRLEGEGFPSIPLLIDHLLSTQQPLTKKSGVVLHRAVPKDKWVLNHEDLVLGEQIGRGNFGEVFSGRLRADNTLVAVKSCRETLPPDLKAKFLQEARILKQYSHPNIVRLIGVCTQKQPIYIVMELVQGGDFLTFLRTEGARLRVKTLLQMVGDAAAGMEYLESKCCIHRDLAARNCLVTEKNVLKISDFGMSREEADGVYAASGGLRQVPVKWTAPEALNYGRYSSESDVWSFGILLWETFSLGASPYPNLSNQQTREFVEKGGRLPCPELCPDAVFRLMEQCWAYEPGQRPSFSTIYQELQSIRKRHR

Sequence	phosphorylation enrichment [1]	phosphorylation enrichment [2]	phosphorylation enrichment [3]	phosphorylation enrichment [4]	phosphorylation enrichment [5]	phosphorylation enrichment [6]	phosphorylation enrichment [7]	phosphorylation enrichment [8]	phosphorylation enrichment [9]	phosphorylation enrichment [10]	phosphorylation enrichment [11]	phosphorylation enrichment [12]	phosphorylation enrichment [13]	SH2 binding enrichment [14]	SH2 binding enrichment [15]	SH2 binding enrichment [16]
PYVYYYSYLLK [PTEN_Y178_R173P]	1.99	3.56	1.92	6.02	6.37	1.1	1.87	1.88	3.46	4.21	5.9	3.68	3.14	0.873	0.598	0.669
KAIMTYVPSFY [ACTN4_Y260_S262P]	0.67	0.413	0.63	0.378	0.509	0.415	0.646	0.52	0.425	0.639	0.439	0.803	0.472	0.818	1.03	1.15
AVEDQYYRVDC [FHL1_Y207_C209R]	3.59	0.831	0.701	8.7	6.95	0.718	1.46	0.982	0.908	1.87	0.622	0.844	1.6	0.949	0.92	0.724
AASTDYFKRGD [PDHA1_Y242_YF]	0.625	0.372	0.454	0.402	0.426	0.363	0.663	0.462	0.45	0.57	0.325	0.421	0.352	0.879	0.68	0.416
RHAASYSSDSE [REPS1_Y116]	0.702	0.382	0.381	0.513	0.611	0.578	0.806	0.737	0.41	1.19	0.51	0.627	0.607	0.985	0.735	0.569
VVTGPYEKPSL [KIR3DS1_Y221_L220P]	1.04	0.55	0.513	0.581	0.491	0.665	0.746	0.473	0.503	0.69	0.45	0.966	0.472	0.875	0.636	0.704
TEVRRYVLPLN [RPE65_Y368_P363T]	0.649	0.377	0.4	0.482	0.785	0.514	0.887	0.412	0.407	0.661	0.401	0.526	0.38	0.852	0.737	0.829
ADLAKYICENR [ALB_Y287_Q292R]	0.84	0.537	0.406	0.469	0.691	0.498	0.946	0.427	0.447	0.928	0.45	1.36	0.467	0.817	0.79	0.424
SAEEDYIADAK [KCNT1_Y876_M877I]	1.22	0.602	0.703	0.617	0.797	0.608	1.48	0.515	0.554	1.2	0.456	0.931	0.608	0.983	0.709	0.683
SLDLSYYTTSS [EMD_Y181_P183T]	0.921	0.596	0.601	0.872	0.989	0.462	1.12	0.53	0.576	1.45	0.614	0.976	0.755	0.955	0.851	1.58
TTTQAYRVDER [PRKN_Y391]	0.709	0.473	0.439	0.446	0.512	0.479	0.758	0.482	0.446	0.57	0.404	0.714	0.389	0.921	0.597	0.465
KKFPDYIQIAM [SGMS2_Y59_YF]	1.13	4.26	0.672	8.61	5.17	0.427	1.06	0.468	0.496	1.07	0.461	0.7	0.556	0.93	0.946	0.76
FLAVGYHMPHI [IDS_Y225_K227M]	0.761	0.346	0.403	0.485	0.562	0.402	0.833	0.395	0.51	0.862	0.313	1.33	0.334	1.1	1.18	3.36
HQKKPYCHAHN [NRAP_Y53]	1.82	1.08	0.8	0.983	2.09	1.85	1.62	0.828	1.05	3.5	0.623	2.3	0.591	1.64	1.79	1.29
RRAKGYPIFLF [ITGB2_Y125_D128Y_YF]	0.632	0.351	0.739	0.561	0.63	0.581	0.741	0.624	0.548	1.12	0.524	0.854	0.857	0.62	0.679	0.582
TIMTNYNPNFC [ALK_Y1092_D1091N_YF]	0.987	0.43	0.784	0.576	0.694	0.512	1.06	0.545	0.5	0.865	0.485	0.716	0.533	0.775	0.531	0.478
GFSRHCEDGFP [CTNND1_Y217_Y217C_YF]	0.767	0.497	0.555	0.471	0.697	0.485	0.958	0.437	0.441	0.724	0.402	0.83	0.441	0.774	0.663	0.479

Sequence	phosphorylation enrichment [1]	phosphorylation enrichment [2]	phosphorylation enrichment [3]	phosphorylation enrichment [4]	phosphorylation enrichment [5]	phosphorylation enrichment [6]	phosphorylation enrichment [7]	phosphorylation enrichment [8]	phosphorylation enrichment [9]	phosphorylation enrichment [10]	phosphorylation enrichment [11]	phosphorylation enrichment [12]	phosphorylation enrichment [13]	SH2 binding enrichment [14]	SH2 binding enrichment [15]	SH2 binding enrichment [16]
EPSVDCCVVKI [CAD_Y735_Y735C]	1.07	0.449	0.499	0.432	0.586	0.411	1.18	0.336	0.371	1.01	0.376	0.816	0.369	0.887	1	0.494
SVVVPYKPPEV [TP53_Y220_E221K]	0.915	0.501	0.461	0.477	0.448	0.471	0.792	0.458	0.421	0.761	0.517	0.584	0.596	0.795	0.599	0.546
AAFNKYDQERF [CDC73_Y293_R292K_YF]	0.692	0.401	0.483	0.412	0.531	0.428	0.785	0.485	0.375	0.599	0.396	0.494	0.414	0.867	0.776	0.44
LSDGPYSSPYE [EPOR_Y485_N487S]	2.3	1.2	0.95	0.421	1.61	0.831	1.39	0.882	0.739	1.2	0.523	1.18	1.09	0.808	0.762	3.98
RFLERYIYNRE [HLA-DPB1_Y57]	0.77	0.852	0.683	0.495	0.784	0.546	0.949	0.842	1.73	0.451	0.533	0.533	0.849	1.3	1.45	1.28
KEIHAYRKLLE [LMNA_Y376_M371K]	0.63	0.397	0.481	0.429	0.487	0.468	0.76	0.344	0.476	0.59	0.414	0.489	0.506	0.68	0.569	0.459
DAHFTYSRFPW [LY75_Y888_D884A_YF]	1.05	2.72	3.63	0.748	0.736	0.499	1.09	3.13	5.79	1.29	3.89	1	5.62	1.06	0.942	0.719
TRSYDYMEGED [FGF7_Y58_G62E]	1.41	0.711	0.634	5.52	0.869	0.645	1.47	0.607	0.549	1.51	0.591	0.919	0.574	0.977	1.05	10.4
TLMNAYSSRSH [KIF11_Y231]	0.675	0.436	0.517	0.449	0.44	0.514	0.579	0.517	0.516	1.08	0.636	0.57	0.54	0.707	0.552	0.427
GESLTYVSTTF [C1orf162_Y120_A121V]	0.954	0.532	0.563	0.508	0.62	0.512	1.07	0.569	0.621	0.691	0.538	0.494	0.664	0.843	0.712	0.519
QGCSIYKDFFR [PLA2G2D_Y82_YF]	1.44	1.11	1.18	0.721	1.28	0.774	1.74	3.19	1.86	2.25	0.998	2.14	6.61	0.921	0.724	0.487
NELTFYCCKKD [CD59_Y87_YF]	1.39	0.514	0.739	0.54	0.715	0.461	1.28	0.452	0.46	1.29	0.466	0.808	0.436	0.938	0.707	0.503
GKVFIYHGSSL [ITGA7_Y458]	1.19	0.655	0.614	0.596	0.761	0.546	1.3	0.42	0.571	1.02	0.364	0.672	0.369	0.996	0.707	0.598
GREEFYVHFVG [KAT8_Y90_YF]	1.23	0.661	0.602	0.582	0.841	0.513	1.52	0.458	0.581	1.37	0.559	0.896	0.693	0.867	0.621	0.472
DPGVSYRTREE [PDHA1_Y301]	0.891	0.385	0.61	0.637	0.53	0.368	0.809	0.409	0.461	0.549	0.378	0.647	0.376	0.744	0.844	0.732
ERNARYRTPKI [PTK2B_Y699]	0.562	0.314	0.276	0.316	0.369	0.313	0.515	0.33	0.351	0.409	0.697	0.527	0.351	0.599	0.71	0.428
